# Assay results reported in US20110091450.
# B1: recombinant mouse MASP-2 (rMASP-2) (protein)
# chain: TLLGSKWPEPVFGRLVSPGFPEKYADHQDRSWTLTAPPGYRLRLYFTHFDLELSYRCEYDFVKLSSGTKVLATLCGQESTDTEQAPGNDTFYSLGPSLKVTFHSDYSNEKPFTGFEAFYAAEDVDECRVSLGDSVPCDHYCHNYLGGYYCSCRAGYILHQNKHTCSALCSGQVFTGRSGYLSSPEYPQPYPKLSSCTYSIRLEDGFSVILDFVESFDVETHPEAQCPYDSLKIQTDKGEHGPFCGKTLPPRIETDSHKVTITFATDESGNHTGWKIHYTSTARPCPDPTAPPNGSISPVQATYVLKDRFSVFCKTGFELLQGSVPLKSFTAVCQKDGSWDRPMPECSIIDCGPPDDLPNGHVDYITGPQVTTYKAVIQYSCEETFYTMSSNGKYVCEADGFWTSSKGEKLPPVCEPVCGLSTHTIGGRIVGGQPAKPGDFPWQVLLLGQTTAAAGALIHDNWVLTAAHAVYEKRMAASSLNIRMGILKRLSPHYTQAWPEEIFIHEGYTHGAGFDNDIALIKLKNKVTINGSIMPVCLPRKEAASLMRTDFTGTVAGWGLTQKGLLARNLMFVDIPIADHQKCTTVYEKLYPGVRVSANMLCAGLETGGKDSCRGDSGGALVFLDNETQRWFVGGIVSWGSINCGAAGQYGVYTKVINYIPWNENIISNF
# Target: mouse MBL (mannose-binding lectin of mouse serum, bound to mannan)
protein,measurement,value
B1,C4 deposition on mannan-coated wells (sMAP-/- mouse serum),the amount of C4 was restored by up to 46% of that of wild-type serum in a dose-dependent manner and reached a plateau (FIG. 25B)
